Measured values from US20110002926A1.

Legend:
[1] = molecular target: soluble HCV E2 (sE2661), HIS-tagged, baculovirus expressed (Hepatitis C virus (genotype not stated)); experiment: BIAcore SPR, sE2 injected over antibody; lower end differs from Table 10
[2] = molecular target: soluble HCV E2 (sE2661), HIS-tagged, baculovirus expressed (Hepatitis C virus (genotype not stated)); experiment: BIAcore SPR, sE2 injected over antibody
[3] = molecular target: HCV E1E2 glycoproteins of genotype 2a (J6) (Hepatitis C virus genotype 2a (J6)) (UniProt P26660); experiment: cell-based or functional assay
[4] = molecular target: HCV E1E2 glycoproteins of genotype 1b (Con1) (Hepatitis C virus genotype 1b (Con1)) (UniProt Q9WMX2); experiment: cell-based or functional assay
Chain of HCV E1E2 glycoproteins of genotype 1b (Con1) (Hepatitis C virus genotype 1b (Con1)) (Q9WMX2 384-746 limits assumed, chain 1 of 2): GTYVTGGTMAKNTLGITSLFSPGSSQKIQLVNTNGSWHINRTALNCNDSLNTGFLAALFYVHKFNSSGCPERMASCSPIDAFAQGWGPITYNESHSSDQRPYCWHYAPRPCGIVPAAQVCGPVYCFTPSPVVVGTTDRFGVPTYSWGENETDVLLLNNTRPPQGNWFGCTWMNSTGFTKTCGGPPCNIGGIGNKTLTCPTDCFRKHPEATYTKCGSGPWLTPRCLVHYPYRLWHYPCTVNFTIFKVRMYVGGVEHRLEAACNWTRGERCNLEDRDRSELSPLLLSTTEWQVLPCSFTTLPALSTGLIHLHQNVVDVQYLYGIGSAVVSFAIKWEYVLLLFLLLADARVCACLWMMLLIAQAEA
Chain of HCV E1E2 glycoproteins of genotype 1b (Con1) (Hepatitis C virus genotype 1b (Con1)) (Q9WMX2 192-383 limits assumed, chain 2 of 2): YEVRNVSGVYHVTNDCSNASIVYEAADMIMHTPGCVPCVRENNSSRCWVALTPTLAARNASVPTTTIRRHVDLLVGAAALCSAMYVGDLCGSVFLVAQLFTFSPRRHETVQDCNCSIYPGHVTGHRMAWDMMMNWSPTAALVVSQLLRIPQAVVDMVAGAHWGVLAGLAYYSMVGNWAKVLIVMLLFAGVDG

[5] = molecular target: soluble HCV E2 (sE2661), HIS-tagged, baculovirus expressed (Hepatitis C virus (genotype not stated)); experiment: BIAcore SPR

Kd [5] [nM] | Substance | Kd [1] [nM] | Kd [2] [nM] | EC50 of HCVpp entry into Huh-7.5 cells (luciferase) [3] [µg/mL] | EC50 of HCVpp entry into Huh-7.5 cells (luciferase) [4] [µg/mL]
 | AP33 monoclonal antibody | 0.5 to 8 | 5 to 8 | 2.07 | 1.42
50 | AP33 Fab |  |  |  | 
